± gives the standard deviation of the averaged measurements.
B1: library; a variant is named by its letters at N, in order (parent)
chain: AATGTTGTTGATGCAACCATAAAGTGATATTTAATAATTATTTATAATCAGCAACTTAACCACAAAACAACCATATATTGATATNTCACAAAACAACCATAANTTGATATTTTTGTGAATCGAGTATTTCAGCAAAACTACTGCAGTAAGAA

What was measured:
[1] = variants of: B1; test: relative integration efficiency (T-LR orientation) vs wild-type transposon end (log2 (normalized fold change)); transposon end mutated: left end; higher = more efficient transposition; details: with VchCAST RNA-guided transposition machinery (E. coli BL21(DE3) host, lacZ target)
Outline: (§1)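 Each barcoded pool, 1549 left-end or 1849 right-end transposon variants in a pUC57 mini-transposon donor, went into E. coli BL21(DE3) with a T7-driven effector plasmid (CRISPR array, tniQ-cas8-cas7-cas6, tnsA-tnsB-tnsC). Plates contained 0.1 mM IPTG and were held at 37°C for 18 h. Input plasmids and genomic integration junctions were PCR-amplified and read by Illumina sequencing, with two biological output replicates and four reference barcodes. Relative integration efficiency is the fold change of output over input barcode abundance, normalised to the reference barcodes and log-transformed.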

[2] = variants of: B1; test: relative integration efficiency (T-RL orientation) vs wild-type transposon end (log2 (normalized fold change)); transposon end mutated: left end; higher = more efficient transposition; details: with VchCAST RNA-guided transposition machinery (E. coli BL21(DE3) host, lacZ target)
Outline: as §1

Variant | relative integration efficiency (log2) [1] | relative integration efficiency (log2) [2]
TA A23G G24T A33T T76A T78G C87A A102T T111C T113C | -0.451 ± 0.41 | -0.227 ± 0.17
CG C52T | 0.154 ± 0.19 | 0.201 ± 0.14
CC T100A A101T A102T | -0.124 ± 0.68 | -0.77 ± 0.44
CG T32A | 0.415 ± 0.98 | 0.178 ± 0.032
CG T41G | 0.12 ± 0.36 | -0.128 ± 0.018
CT A22C A23C G24T T76G A77C T78G A102C T104G | -4.26 ± 1.6 | -3.88 ± 1.4
CG A11T T12A | -1.18 ± 0.28 | -0.325 ± 0.19
CG A15C A16C C17A C18A | -2.02 ± 1.9 | -1.89 ± 0.66
CG C71G | -0.452 ± 0.8 | -0.253 ± 0.4
CG G26T A27C T28G A29C | -1.37 ± 0.4 | -1.9 ± 1.2
TA G24A T30A T76A T78G C87A A96C T110A T113A | 0.291 ± 0.89 | 0.0775 ± 0.15
CG A59T C60G | 0.263 ± 0.38 | -0.145 ± 0.073
CG T78G T79G G80T A81C | -3.25 ± 1.3 | -2.44 ± 0.79
CG G51A | 0.634 ± 0.19 | 0.302 ± 0.085
CG G51C | -0.456 ± 0.66 | -0.42 ± 0.19
TA A22T G24T T31C A33C T76A T78A T84A C87A T104A T110A T113A | -0.396 ± 0.056 | -0.175 ± 0.33
CG C14A A15C | -0.0841 ± 0.4 | -0.0319 ± 0.34
CG A29T T30A | 0.489 ± 0.49 | 0.23 ± 0.29
GG T86A | 0.153 ± 0.2 | -0.397 ± 0.17
CG T31C | 0.331 ± 0.47 | -0.0756 ± 0.17
CG T39A | 0.147 ± 0.58 | 0.0624 ± 0.071
CG A34G | -0.187 ± 0.0028 | -0.0204 ± 0.046
CG A1T A2T T3A G4C | 0.144 ± 0.82 | 0.164 ± 0.1

Variant | relative integration efficiency (log2) [1] | relative integration efficiency (log2) [2]
CG A88C C89A A90C A91C | -0.0905 ± 0.58 | -0.404 ± 0.32
CG A65C A66C | 0.318 ± 0.48 | 0.0588 ± 0.077
CG C98A | -0.338 ± 1.2 | -0.0969 ± 0.46
CG T35A A36T A37T T38A | 0.322 ± 0.34 | 0.354 ± 0.019
CG T39G A40C T41G T43A A44C A47G C49T G51A A53T C55G A58C A59G C60A | -5.96 ± 2.7 | -4.12 ± 1.1
CG A15T A16T C17G C18G | -0.912 ± 0.078 | -0.824 ± 0.58
CG G4T T5G | -0.37 ± 0.2 | -0.366 ± 0.035
CG T104C | -0.483 ± 0.33 | -0.257 ± 0.037
CG T104G | -0.2 ± 0.48 | -0.0872 ± 0.27
TA A16C G24T T32G A33C T76A A77G C87T A102T T111C T113C | -1.56 ± 0.58 | -1.11 ± 0.63
CG T12A G13C C14G A15T | -0.874 ± 0.76 | -0.341 ± 0.43
TA A16C G24T T30A T76A A77G C87T A96C T112G T113C | 0.0498 ± 0.26 | -0.0655 ± 0.56
TA A70C T76A T84A C87A T104A T110A T113A | 0.319 ± 0.13 | -0.146 ± 0.28
CG A37C T38G | -0.172 ± 0.0031 | -0.236 ± 0.044
CG G117T A118C A119C T120G | 0.0571 ± 0.28 | 0.0586 ± 0.085
CG C55T | 0.102 ± 0.26 | -0.123 ± 0.13
CG C71A C72A | -1.63 ± 1.1 | -1.05 ± 0.77
CG A1C A2G T3C G4C T5G | -0.385 ± 0.32 | -0.219 ± 0.027
CG T57G A58C A59C C60A | -1.48 ± 0.099 | -0.817 ± 0.47
CG A58C A59C C60A C61A | 0.829 ± 0.17 | 1.06 ± 0.036
TG A16C G24T T32G A33C T76A T78G C87A | 0.456 ± 0.7 | 0.525 ± 0.38
CG A11C T12G G13T C14A | -1.55 ± 0.089 | -0.699 ± 0.47
TA G24A T30A A70C T76A T84A C87A A96C T112G T113C | 0.302 ± 0.58 | 0.326 ± 0.17

Variant | relative integration efficiency (log2) [1] | relative integration efficiency (log2) [2]
CG C18G A19T T20A A21T | -2.57 ± 1.4 | -1.37 ± 0.56
CG C97T | -0.391 ± 0.74 | -0.324 ± 0.13
CG T86A | 0.731 ± 0.2 | 0.656 ± 0.025
TA A70C T76A T84A C87A A102T T111C T113C | 0.619 ± 0.14 | 0.128 ± 0.4
CG A2C | 0.61035 ± 0.00046 | -0.0562 ± 0.037
CG C61A | 0.321 ± 0.14 | 0.0593 ± 0.091
CG T9A G10C | -2.248 ± 0.0027 | -0.479 ± 0.16
TG A16C G24T T30A T76A A77G C87T | -0.0311 ± 0.37 | -0.534 ± 0.47
CG A1C A2C T3G G4T | -0.0427 ± 0.68 | -0.346 ± 0.11
CG T111A T112A T113A T114A | -0.629 ± 0.047 | -0.668 ± 0.39
CG G115A | 0.113 ± 0.17 | -0.259 ± 0.26
CG G106A | -1.25 ± 1.6 | -0.788 ± 0.47
CG G106C | -2.1 ± 1.4 | -1.81 ± 0.62
CG A93C C94A | -0.406 ± 0.83 | -0.522 ± 0.41
CG T42G T43G | 0.178 ± 0.27 | -0.123 ± 0.14
CG A91T A92T | 0.705 ± 0.2 | 0.108 ± 0.066
CG A37T T38A T39A A40T | 0.186 ± 0.28 | 0.137 ± 0.049
TA T76A T78A T84A C87A T104A T110A T113A | 0.357 ± 0.48 | 0.0146 ± 0.17
CA A16C G24T T32G A33C A96C T110A T113A | -1.02 ± 1.2 | -0.362 ± 0.31
TG A70C T76A T84A C87A | 0.577 ± 0.018 | -0.0929 ± 0.15
CG T45G A46C A47C T48G | -0.0893 ± 0.7 | -0.487 ± 0.43
CG A1T A2T | 0.429 ± 0.098 | 0.223 ± 0.059
TA G24A T30A T76A T78G C87A A102T T111C T113C | -0.298 ± 0.65 | 0.243 ± 0.089

Variant | relative integration efficiency (log2) [1] | relative integration efficiency (log2) [2]
TA G24A T30A T76A T78A T84A C87A T104A T110A T113A | 0.184 ± 0.12 | 0.0385 ± 0.19
CG A40C T41G | 0.224 ± 0.022 | -0.0298 ± 0.00035
CG A99T T100A | -1.17 ± 0.8 | -1.19 ± 0.47
TG A23G G24T A33T A70C T76A T84A C87A | 0.473 ± 0.22 | 0.022 ± 0.35
CG C60A | 0.503 ± 0.15 | 0.0973 ± 0.034
CG T84G | -0.943 ± 0.55 | -0.591 ± 0.3
CG T84A | -0.0315 ± 0.47 | -0.0633 ± 0.033
CG T56A T57A | -0.409 ± 0.79 | -0.165 ± 0.21
CG A54C | -0.339 ± 0.014 | -0.178 ± 0.022
CG A66C A67C C68A A69C | -0.943 ± 0.25 | -0.685 ± 0.37
CG T113A T114A | -0.122 ± 0.087 | -0.426 ± 0.25
AG | 0.27 ± 0.094 | 0.00541 ± 0.045
CG G13T | -0.887 ± 0.83 | 0.0664 ± 0.041
CG G13C | -0.392 ± 0.57 | 0.0316 ± 0.11
CG A59G | 0.164 ± 0.45 | -0.0472 ± 0.057
CG A99T T100A A101T A102T | -0.997 ± 0.78 | -1.06 ± 0.48
TA A16C G24T T32G A33C T76A T78A T84A C87A T104G T113A | -0.166 ± 0.52 | -0.296 ± 0.42
CT | 0.219 ± 0.67 | -0.0852 ± 0.034
CG | -0.0136 ± 0.21 | -0.00322 ± 0.1
CA A16C G24T T30A A102T T111C T113C | -0.907 ± 1 | -0.887 ± 0.57
CG A19T | -0.706 ± 1.6 | -0.267 ± 0.38
CG A19C | -1.53 ± 1 | -1.49 ± 0.49
CG A19T T20A | -0.844 ± 0.51 | -1.12 ± 0.56

Variant | relative integration efficiency (log2) [1] | relative integration efficiency (log2) [2]
CG A81G | -0.37 ± 0.32 | -0.449 ± 0.27
CG T116G G117T A118C A119C | -0.21 ± 0.42 | 0.0794 ± 0.11
CG G26C G80C G106C | -5.11 ± 2.5 | -6.9 ± 1.7
CG A88T C89G | 0.362 ± 0.31 | 0.178 ± 0.048
TG G24A T30A A70C T76A T86G | 1.23 ± 0.52 | 0.692 ± 0.36
TA A16C G24T T30A T76A T78A T84A C87A T104A T110A T113A | 0.114 ± 0.83 | -0.0645 ± 0.35
CG A23G | 0.359 ± 0.084 | -0.0169 ± 0.11
CG A23T | 0.0168 ± 0.12 | 0.086 ± 0.23
TA A23G G24T A33T T76A T78A T84A C87A T104A T110A T113A | 0.471 ± 0.38 | 0.117 ± 0.25
CG A34C T35C A36G T38C A40G T42C A44G A62G A65G A66C | -0.6091 ± 0.0048 | -0.635 ± 0.3
CG T30G T31G T32G A33C | -1.21 ± 0.73 | -1.06 ± 0.5
CG A64C A65C A66C A67C | -0.691 ± 0.34 | -0.323 ± 0.18
CG T110G T111G | -1.08 ± 0.37 | -1.16 ± 0.65
CG T6C | -1.5 ± 1 | -2.65 ± 0.37
CG A83C | 0.152 ± 0.25 | 0.0829 ± 0.27
CG A101T | -0.501 ± 0.29 | -0.599 ± 0.23
CG A47T T48A | 0.0225 ± 0.3 | 0.341 ± 0.033
CG A109T T110A | -0.674 ± 0.43 | -0.271 ± 0.27
CG T100A A101T | -0.623 ± 0.79 | -0.364 ± 0.49
TA A16C G24T T30A A70C T76A T86G T104G T113A | -0.388 ± 0.33 | -0.652 ± 0.39
CG A92T A93T | -0.29 ± 0.86 | -0.445 ± 0.23
TA A22T G24T T31C A33C A70C T76A T84A C87A A96C T110A T113A | -0.841 ± 0.82 | -0.504 ± 0.43
CG G24T T25G | -0.649 ± 0.2 | -0.561 ± 0.34
